Data on one substance can be found in PMC7173237.

This assay has as its target West Nile virus (Kunjin subtype, strain MRM61C) core (C) protein, trypsin-cleaved fragment Val23-Arg98 (Kunjin virus (strain MRM61C)). Nature of the assay: crystal structure.

“West Nile virus (Kunjin subtype, strain MRM61C) core (C) protein, trypsin-cleaved fragment Val23-Arg98 (domain or fragment)” showed a stoichiometry N of 4.

The stoichiometry N is the number of molecules, sites or subunits per partner or assembly.
